One molecule from article PMC4114019 can be followed below.

Broadly, the stoichiometry N is a count of units in the complex or per binding partner.

This experiment has as its target T1, Purified FLAG-IKKε protein, Q14164.
T1 chain: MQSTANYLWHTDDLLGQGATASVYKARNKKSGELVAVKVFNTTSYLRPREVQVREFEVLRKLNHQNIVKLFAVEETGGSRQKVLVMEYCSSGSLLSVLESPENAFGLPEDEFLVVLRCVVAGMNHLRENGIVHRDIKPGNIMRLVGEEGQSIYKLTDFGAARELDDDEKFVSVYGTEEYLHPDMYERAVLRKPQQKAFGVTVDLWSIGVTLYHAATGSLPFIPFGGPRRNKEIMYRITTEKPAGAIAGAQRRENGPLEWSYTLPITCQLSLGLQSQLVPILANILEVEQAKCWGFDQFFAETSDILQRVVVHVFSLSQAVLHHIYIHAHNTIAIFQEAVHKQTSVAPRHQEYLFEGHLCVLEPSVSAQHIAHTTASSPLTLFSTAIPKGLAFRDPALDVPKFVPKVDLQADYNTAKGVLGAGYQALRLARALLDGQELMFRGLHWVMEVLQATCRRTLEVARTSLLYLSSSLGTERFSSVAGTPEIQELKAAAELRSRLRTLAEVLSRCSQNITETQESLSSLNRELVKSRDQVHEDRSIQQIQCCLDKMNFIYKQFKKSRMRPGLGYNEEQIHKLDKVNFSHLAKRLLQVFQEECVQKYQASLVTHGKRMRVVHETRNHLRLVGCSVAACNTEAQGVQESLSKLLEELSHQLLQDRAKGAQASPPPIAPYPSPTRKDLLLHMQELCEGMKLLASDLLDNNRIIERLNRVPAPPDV
Briefly: native gel or EMSA. The note with it: remark: other sources report otherwise. (In general: A gel shift assay detects complexes by their altered migration in electrophoresis.)

B1: Purified FLAG-IKKε protein, Q14164 1-716 (enzyme)
chain: T1 chain
As to B1, the stoichiometry N amounted to 2.
